For assay [1], the target named is T1, Aβ1-42 fibrils (Aβ1-42 peptide, Bachem H-1368) (UniProt P05067 672-713).
T1 construct: domain: Aβ1-42; Fibrils were immobilized on the sensor chip by amine coupling, so this is a multimeric aggregate; also called fibrillar Aβ1-42; immobilized Aβ1-42 fibrils
As to the kind of experiment: SPR (Biacore T200): Aβ1-42 fibrils immobilised on the sensor chip by amine coupling, scFv-IgG injected at 5-50 nM, global fit to a 1:1 binding model. (Surface plasmon resonance follows binding to a sensor surface in real time, without labels.)

Assay [2] has as its target T1, Aβ1-42 fibrils (Aβ1-42 peptide, Bachem …). As to the kind of experiment: SPR (Biacore T200), scFv-IgG flowed over amine-coupled Aβ1-42 fibrils, 1:1 fit, apparent KD.
Assay [3] has the same target. Kind of assay: SPR (Biacore T200), antibody flowed over amine-coupled Aβ1-42 fibrils, 1:1 fit, apparent KD.
Assay [4] shares this target. Kind of assay: SPR (Biacore T200): Aβ1-42 fibrils immobilised on the sensor chip by amine coupling, antibody injected at 5-50 nM, global fit to a 1:1 binding model.

T1 sequence (P05067 672-713 limits assumed): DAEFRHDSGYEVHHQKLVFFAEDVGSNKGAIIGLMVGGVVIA

B1: anti-Aβ scFv-IgG (Fc fusion)
scFv: SEIVMTQTPLSLPVSLGDRASISCRSGQSLVHSNGNTYLHWYLQKPGQSPKLLIYTVSNRFSGVPDRFSGSGSGSDFTLTISRVEAEDLGVYFCSQNTFVPWTFGGGTKLEIKRTSSGGGGSGGGGSGGGGSEVQLQQSGPEVVKPGVSVKISCKGSGYTFTDYAMHWVKQSPGKSLEWIGVISTKYGKTNYNPSFQGQATMTVDKSSSTAYMELASLKASDSAIYYCARGDDGYSWGQGTSVTVSSASTGGGGGGGGGSGVPRDCGCKPCICTVPEVSSVFIFPPKPKDVLTITLTPKVTCVVVDISKDDPEVQFSWFVDDVEVHTAQTQPREEQFASTFRSVSELPIMHQDWLNGKEFKCRVNSAAFPAPIEKTISKTKGRPKAPQVYTIPPPKEQMAKDKVSLTCMITDFFPEDITVEWQWNGQPAENYKNTQPIMDTDGSYFVYSKLNVQKSNWEAGNTFTCSVLHEGLHNHHTEKSLSHSPGSGSGSGSHHHHHH
notes: Disulfide-linked homodimer; For SPR the protein was expressed in Expi293 cells and purified by IMAC; also called silent scFv-IgG; AAV-scFv-IgG (vector-expressed form)
In the case of B1, the Kd in assay [1] stood at 0.525 nM; in assay [2], 0.52 nM.

B2: parental 13C3 anti-amyloid beta antibody (murine IgG) (antibody, V domains shown)
VH: EVQLQQSGPEVVKPGVSVKISCKGSGYTFTDYAMHWVKQSPGKSLEWIGVISTKYGKTNYNPSFQGQATMTVDKSSSTAYMELASLKASDSAIYYCARGDDGYSWGQGTSVTVSS
VL: EIVMTQTPLSLPVSLGDRASISCRSGQSLVHSNGNTYLHWYLQKPGQSPKLLIYTVSNRFSGVPDRFSGSGSGSDFTLTISRVEAEDLGVYFCSQNTFVPWTFGGGTKLEIK
notes: The SPR text says only 'parental IgG' or 'parental antibody'; The scFv-IgG derives from the murine 13C3 antibody (mouse IgG1); also called parental IgG; parental antibody
For the molecule B2, the Kd in assay [3] is 0.13 nM; in assay [4], 0.132 nM.

Source of the values: patent US20220213506A1 (Sanofi, published 2022).
